Test results as given in patent US20230406885A1, “CYCLIC PEPTIDES FOR TRAPPING INTERLEUKIN-1 BETA” (MERCK SHARP & DOHME LLC, priority 2022, published 2023).
*1 amine or outer side, *2 acyl side, *3 side chain or, on linkers, in order; H or OH if unused. [ ]: non-standard residue; d: D form. 3AzaPhe4AcPip = (S)-3-(6-(4-acetylpiperazin-1-yl)pyridin-3-yl)-2-aminopropanoic acid, CC(=O)N1CCN(c2ccc(C[C@H](N[*:1])C(=O)[*:2])cn2)CC1; Trp(4-Cl)(βS-Me) = C[C@@H](c1c[nH]c2cccc(Cl)c12)[C@H](N)C(=O)O; Pro(trans-4-NH2) = O=C([C@@H]1C[C@@H](N[*:3])CN1[*:1])[*:2]; Trp(βS-Me,4-F) = C[C@@H](c1c[nH]c2cccc(F)c12)[C@H](N)C(=O)O; Bip(4'-COOH) = N[C@@H](Cc1ccc(-c2ccc(C(=O)O)cc2)cc1)C(=O)O; Phe(4-COOH) = N[C@@H](Cc1ccc(C(=O)O)cc1)C(=O)O; Phe(4-CH2NH2) = NCc1ccc(C[C@H](N)C(=O)O)cc1; Phe(4-NH2) = Nc1ccc(C[C@H](N)C(=O)O)cc1; hTyr = N[C@@H](CCc1ccc(O)cc1)C(=O)O; h4Pal = N[C@@H](CCc1ccncc1)C(=O)O; 4Pal = N[C@@H](Cc1ccncc1)C(=O)O; dDab = NCC[C@@H](N)C(=O)O; dNMeA = CN[C@H](C)C(=O)O; Dap = NC[C@H](N)C(=O)O

Molecular target: Recombinant human IL-1β (BioLegend 579404) (human, UniProt P01584 117-269)
Test: cell-based or functional assay

Binder	MRC5 IC50 [pM]
cyclo([Bip(4'-COOH)]W[Phe(4-COOH)]G[Pro(trans-4-NH2)][Trp(4-Cl)(βS-Me)]D[dNMeA]G[Bip(4'-COOH)]W[Dap][dA][hTyr]) (SMILES C[C@@H]1C(=O)NCC(=O)N[C@@H](Cc2ccc(-c3ccc(C(=O)O)cc3)cc2)C(=O)N[C@@H](Cc2c[nH]c3ccccc23)C(=O)N[C@@H](CN)C(=O)N[C@H](C)C(=O)N[C@@H](CCc2ccc(O)cc2)C(=O)N[C@@H](Cc2ccc(-c3ccc(C(=O)O)cc3)cc2)C(=O)N[C@@H](Cc2c[nH]c3ccccc23)C(=O)N[C@@H](Cc2ccc(C(=O)O)cc2)C(=O)NCC(=O)N2C[C@H](N)C[C@H]2C(=O)N[C@@H]([C@@H](C)c2c[nH]c3cccc(Cl)c23)C(=O)N[C@@H](CC(=O)O)C(=O)N1C) [SEQ ID NO: 53]	41.8
cyclo([Bip(4'-COOH)]W[Phe(4-COOH)]G[Pro(trans-4-NH2)][Trp(4-Cl)(βS-Me)]Q[dNMeA]G[Bip(4'-COOH)]WG[dDab][hTyr]) (SMILES C[C@@H]1C(=O)NCC(=O)N[C@@H](Cc2ccc(-c3ccc(C(=O)O)cc3)cc2)C(=O)N[C@@H](Cc2c[nH]c3ccccc23)C(=O)NCC(=O)N[C@H](CCN)C(=O)N[C@@H](CCc2ccc(O)cc2)C(=O)N[C@@H](Cc2ccc(-c3ccc(C(=O)O)cc3)cc2)C(=O)N[C@@H](Cc2c[nH]c3ccccc23)C(=O)N[C@@H](Cc2ccc(C(=O)O)cc2)C(=O)NCC(=O)N2C[C@H](N)C[C@H]2C(=O)N[C@@H]([C@@H](C)c2c[nH]c3cccc(Cl)c23)C(=O)N[C@@H](CCC(N)=O)C(=O)N1C) [SEQ ID NO: 57]	87.3
cyclo([Bip(4'-COOH)]W[Phe(4-COOH)]G[Pro(trans-4-NH2)][Trp(4-Cl)(βS-Me)]D[dNMeA]G[Bip(4'-COOH)][Phe(4-CH2NH2)]S[dA][hTyr]) (SMILES C[C@@H]1C(=O)NCC(=O)N[C@@H](Cc2ccc(-c3ccc(C(=O)O)cc3)cc2)C(=O)N[C@@H](Cc2ccc(CN)cc2)C(=O)N[C@@H](CO)C(=O)N[C@H](C)C(=O)N[C@@H](CCc2ccc(O)cc2)C(=O)N[C@@H](Cc2ccc(-c3ccc(C(=O)O)cc3)cc2)C(=O)N[C@@H](Cc2c[nH]c3ccccc23)C(=O)N[C@@H](Cc2ccc(C(=O)O)cc2)C(=O)NCC(=O)N2C[C@H](N)C[C@H]2C(=O)N[C@@H]([C@@H](C)c2c[nH]c3cccc(Cl)c23)C(=O)N[C@@H](CC(=O)O)C(=O)N1C) [SEQ ID NO: 51]	320
cyclo([Bip(4'-COOH)]W[Phe(4-COOH)]G[Pro(trans-4-NH2)][Trp(4-Cl)(βS-Me)]D[dNMeA]G[Bip(4'-COOH)]WG[dDab][hTyr]) (SMILES C[C@@H]1C(=O)NCC(=O)N[C@@H](Cc2ccc(-c3ccc(C(=O)O)cc3)cc2)C(=O)N[C@@H](Cc2c[nH]c3ccccc23)C(=O)NCC(=O)N[C@H](CCN)C(=O)N[C@@H](CCc2ccc(O)cc2)C(=O)N[C@@H](Cc2ccc(-c3ccc(C(=O)O)cc3)cc2)C(=O)N[C@@H](Cc2c[nH]c3ccccc23)C(=O)N[C@@H](Cc2ccc(C(=O)O)cc2)C(=O)NCC(=O)N2C[C@H](N)C[C@H]2C(=O)N[C@@H]([C@@H](C)c2c[nH]c3cccc(Cl)c23)C(=O)N[C@@H](CC(=O)O)C(=O)N1C) [SEQ ID NO: 54]	69.2
cyclo([Bip(4'-COOH)]W[Phe(4-COOH)]G[Pro(trans-4-NH2)][Trp(4-Cl)(βS-Me)]N[dNMeA]G[Bip(4'-COOH)]WG[dDab][hTyr]) (SMILES C[C@@H]1C(=O)NCC(=O)N[C@@H](Cc2ccc(-c3ccc(C(=O)O)cc3)cc2)C(=O)N[C@@H](Cc2c[nH]c3ccccc23)C(=O)NCC(=O)N[C@H](CCN)C(=O)N[C@@H](CCc2ccc(O)cc2)C(=O)N[C@@H](Cc2ccc(-c3ccc(C(=O)O)cc3)cc2)C(=O)N[C@@H](Cc2c[nH]c3ccccc23)C(=O)N[C@@H](Cc2ccc(C(=O)O)cc2)C(=O)NCC(=O)N2C[C@H](N)C[C@H]2C(=O)N[C@@H]([C@@H](C)c2c[nH]c3cccc(Cl)c23)C(=O)N[C@@H](CC(N)=O)C(=O)N1C) [SEQ ID NO: 56]	20.7
cyclo([Bip(4'-COOH)]W[Phe(4-COOH)]G[Pro(trans-4-NH2)][Trp(4-Cl)(βS-Me)]D[dNMeA]G[Bip(4'-COOH)][Phe(4-NH2)]S[dA][hTyr]) (SMILES C[C@@H]1C(=O)NCC(=O)N[C@@H](Cc2ccc(-c3ccc(C(=O)O)cc3)cc2)C(=O)N[C@@H](Cc2ccc(N)cc2)C(=O)N[C@@H](CO)C(=O)N[C@H](C)C(=O)N[C@@H](CCc2ccc(O)cc2)C(=O)N[C@@H](Cc2ccc(-c3ccc(C(=O)O)cc3)cc2)C(=O)N[C@@H](Cc2c[nH]c3ccccc23)C(=O)N[C@@H](Cc2ccc(C(=O)O)cc2)C(=O)NCC(=O)N2C[C@H](N)C[C@H]2C(=O)N[C@@H]([C@@H](C)c2c[nH]c3cccc(Cl)c23)C(=O)N[C@@H](CC(=O)O)C(=O)N1C) [SEQ ID NO: 52]	454
cyclo([Bip(4'-COOH)]W[Phe(4-COOH)]G[Pro(trans-4-NH2)][Trp(4-Cl)(βS-Me)]E[dNMeA]G[Bip(4'-COOH)]WG[dDab][hTyr]) (SMILES C[C@@H]1C(=O)NCC(=O)N[C@@H](Cc2ccc(-c3ccc(C(=O)O)cc3)cc2)C(=O)N[C@@H](Cc2c[nH]c3ccccc23)C(=O)NCC(=O)N[C@H](CCN)C(=O)N[C@@H](CCc2ccc(O)cc2)C(=O)N[C@@H](Cc2ccc(-c3ccc(C(=O)O)cc3)cc2)C(=O)N[C@@H](Cc2c[nH]c3ccccc23)C(=O)N[C@@H](Cc2ccc(C(=O)O)cc2)C(=O)NCC(=O)N2C[C@H](N)C[C@H]2C(=O)N[C@@H]([C@@H](C)c2c[nH]c3cccc(Cl)c23)C(=O)N[C@@H](CCC(=O)O)C(=O)N1C) [SEQ ID NO: 55]	49.3
cyclo([Bip(4'-COOH)]W[Phe(4-COOH)]G[Pro(trans-4-NH2)][Trp(βS-Me,4-F)]D[dNMeA]G[Bip(4'-COOH)]FL[dA][hTyr]) (SMILES CC(C)C[C@@H]1NC(=O)[C@H](Cc2ccccc2)NC(=O)[C@H](Cc2ccc(-c3ccc(C(=O)O)cc3)cc2)NC(=O)CNC(=O)[C@@H](C)N(C)C(=O)[C@H](CC(=O)O)NC(=O)[C@H]([C@@H](C)c2c[nH]c3cccc(F)c23)NC(=O)[C@@H]2C[C@@H](N)CN2C(=O)CNC(=O)[C@H](Cc2ccc(C(=O)O)cc2)NC(=O)[C@H](Cc2c[nH]c3ccccc23)NC(=O)[C@H](Cc2ccc(-c3ccc(C(=O)O)cc3)cc2)NC(=O)[C@H](CCc2ccc(O)cc2)NC(=O)[C@@H](C)NC1=O) [SEQ ID NO: 60]	68.9
cyclo([3AzaPhe4AcPip]W[Phe(4-COOH)]G[Pro(trans-4-NH2)][Trp(βS-Me,4-F)]D[dNMeA]G[Bip(4'-COOH)]KL[dA][hTyr]) (SMILES CC(=O)N1CCN(c2ccc(C[C@@H]3NC(=O)[C@H](CCc4ccc(O)cc4)NC(=O)[C@@H](C)NC(=O)[C@H](CC(C)C)NC(=O)[C@H](CCCCN)NC(=O)[C@H](Cc4ccc(-c5ccc(C(=O)O)cc5)cc4)NC(=O)CNC(=O)[C@@H](C)N(C)C(=O)[C@H](CC(=O)O)NC(=O)[C@H]([C@@H](C)c4c[nH]c5cccc(F)c45)NC(=O)[C@@H]4C[C@@H](N)CN4C(=O)CNC(=O)[C@H](Cc4ccc(C(=O)O)cc4)NC(=O)[C@H](Cc4c[nH]c5ccccc45)NC3=O)cn2)CC1) [SEQ ID NO: 6]	66.6
cyclo([Bip(4'-COOH)]W[Phe(4-COOH)]G[Pro(trans-4-NH2)][Trp(βS-Me,4-F)]D[dNMeA]G[Bip(4'-COOH)][4Pal]L[dA][hTyr]) (SMILES CC(C)C[C@@H]1NC(=O)[C@H](Cc2ccncc2)NC(=O)[C@H](Cc2ccc(-c3ccc(C(=O)O)cc3)cc2)NC(=O)CNC(=O)[C@@H](C)N(C)C(=O)[C@H](CC(=O)O)NC(=O)[C@H]([C@@H](C)c2c[nH]c3cccc(F)c23)NC(=O)[C@@H]2C[C@@H](N)CN2C(=O)CNC(=O)[C@H](Cc2ccc(C(=O)O)cc2)NC(=O)[C@H](Cc2c[nH]c3ccccc23)NC(=O)[C@H](Cc2ccc(-c3ccc(C(=O)O)cc3)cc2)NC(=O)[C@H](CCc2ccc(O)cc2)NC(=O)[C@@H](C)NC1=O) [SEQ ID NO: 59]	36.2
cyclo([Bip(4'-COOH)]W[Phe(4-COOH)]G[Pro(trans-4-NH2)][Trp(βS-Me,4-F)]D[dNMeA]G[Bip(4'-COOH)][h4Pal]L[dA][hTyr]) (SMILES CC(C)C[C@@H]1NC(=O)[C@H](CCc2ccncc2)NC(=O)[C@H](Cc2ccc(-c3ccc(C(=O)O)cc3)cc2)NC(=O)CNC(=O)[C@@H](C)N(C)C(=O)[C@H](CC(=O)O)NC(=O)[C@H]([C@@H](C)c2c[nH]c3cccc(F)c23)NC(=O)[C@@H]2C[C@@H](N)CN2C(=O)CNC(=O)[C@H](Cc2ccc(C(=O)O)cc2)NC(=O)[C@H](Cc2c[nH]c3ccccc23)NC(=O)[C@H](Cc2ccc(-c3ccc(C(=O)O)cc3)cc2)NC(=O)[C@H](CCc2ccc(O)cc2)NC(=O)[C@@H](C)NC1=O) [SEQ ID NO: 61]	312
cyclo([Bip(4'-COOH)]W[Phe(4-COOH)]G[Pro(trans-4-NH2)][Trp(βS-Me,4-F)]A[dNMeA]G[Bip(4'-COOH)]KL[dA][hTyr]) (SMILES CC(C)C[C@@H]1NC(=O)[C@H](CCCCN)NC(=O)[C@H](Cc2ccc(-c3ccc(C(=O)O)cc3)cc2)NC(=O)CNC(=O)[C@@H](C)N(C)C(=O)[C@H](C)NC(=O)[C@H]([C@@H](C)c2c[nH]c3cccc(F)c23)NC(=O)[C@@H]2C[C@@H](N)CN2C(=O)CNC(=O)[C@H](Cc2ccc(C(=O)O)cc2)NC(=O)[C@H](Cc2c[nH]c3ccccc23)NC(=O)[C@H](Cc2ccc(-c3ccc(C(=O)O)cc3)cc2)NC(=O)[C@H](CCc2ccc(O)cc2)NC(=O)[C@@H](C)NC1=O) [SEQ ID NO: 58]	248
